Seven molecules from patent publication CN110538321A (JIANGSU HENGRUI MEDICINE CO; SHANGHAI HENGRUI …, dated 2019) can be followed below.

The target in experiment [1] is T1, 人CD47蛋白 (Leukocyte surface antigen CD47) (human, UniProt Q08722 19-141).
T1 construct: extracellular domain; The assays say only 'CD47'; also called human CD47
Briefly: Biacore (SPR), reference antibody of the comparison. On the technique in general: In SPR one partner is held on a chip, and binding of the other changes the refractive index at the surface.

Experiment [2] deals with T1, 人CD47蛋白 (Leukocyte surface antigen CD47). Put plainly: CD47 binding ELISA, hybridoma screening.
Experiment [3] shares this target. Briefly: Biacore (SPR).

Substitutions are numbered along the chain they refer to.

T1 sequence (Q08722 19-141 limits assumed): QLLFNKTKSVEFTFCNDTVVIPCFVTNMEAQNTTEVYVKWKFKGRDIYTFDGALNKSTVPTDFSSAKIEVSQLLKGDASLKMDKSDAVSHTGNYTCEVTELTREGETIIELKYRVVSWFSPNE

B1: 嵌合抗体ch-055 (antibody, V domains shown)
VH: QVLLQQSGPELVQPGASVKISCKASGYSFTSSYLHWVKQRPGQGLDWIGWIYPESGNTKYNERFKGKATLTADTSSSTAYMQLSSLTSEDSAVYYCSRRGDVFFAYWGQGTTLTVSS
VL: DIVMTQSPSYLTVTAGEKVTMSCKSSQSLLTSGKQKNYLTWYQQKPGQPPKLLIYWASTRESGVPERFRGSGSGTDFTLTISSVQAEDLAVYYCQNDYSYPLTFGAGTKLELN
notes: Chimeric antibody of clone 055
B1: the binding result in experiment [1] is “binds”.

B2: 杂交瘤克隆055鼠源抗体 (antibody, V domains shown)
VH: B1 VH
VL: B1 VL
notes: Mouse hybridoma antibody; also called 鼠源抗体055
For B2, in experiment [2], the binding result was “binds”.

B3: hu167-31 (antibody, V domains shown)
VH: QVQLVQSGAEVKKPGASVKVSCKASGYTFTSYWMHWVRQAPGQGLEWMGNIDPSDSETHYNQKFKDRVTMTRDTSISTAYMELSRLRSDDTAVYYCARWGYLGRSAMDYWGQGTTVTVSS
VL: DVQMTQSPSSLSASVGDRVTITCRTSKSISKFLAWYQQKPGKAPKLLIYSGSTLQSGVPSRFSGSGSGTDFTLTISSLQPEDFATYYCQQHNEYPWTFGGGTKVEIK
For the molecule B3, the KD ratio relative to hu167-4 in experiment [3] was determined as 1.3.

B4: hu167-32 (antibody, V domains shown)
VH: B3 VH
VL: B3 VL with V2I, M4I
Consider B4, for which the KD ratio relative to hu167-4 in experiment [3] was determined as 1.2.

B5: hu167-33 (antibody, human IgG4 S228P, kappa, F234A L235A, V domains shown)
VH: B3 VH
VL: DVQITQSPSSLSASVGDRVTITCRTSKSISKFLAWYQQKPGKAPKLLIYSGSTLQSGVPSRFSGSGSGTDFTLTISSLQPEDFATYYCQQHNEYPWTFGGGTKVEIKR
Take B5: the KD ratio relative to hu167-4 in experiment [3] came to 0.98.

B6: hu055-5 (antibody, human IgG4 S228P, kappa, F234A L235A, V domains shown)
VH: QVQLVQSGAEVKKPGASVKVSCKASGYTFTSSYLHWVRQAPGQRLDWIGWIYPESGNTKYNERFKGRATLTADTSASTAYMELSSLRSEDTAVYYCARRGDVFFAYWGQGTTVTVSS
VL: DIVMTQSPDSLAVSLGERATINCKSSQSLLTSGKQKNYLTWYQQKPGQPPKLLIYWASTRESGVPDRFSGSGSGTDFTLTISSLQAEDVAVYYCQNDYSYPLTFGQGTKLEIKR
As to B6, the binding result in experiment [3] was “binds”.

B7: 杂交瘤克隆167鼠源抗体 (antibody, V domains shown)
VH: QVQLQQPGAELVRPGSSVKLSCKASGYTFTSYWMHWVKQRPIQGLEWVGNIDPSDSETHYNQKFKDKATLTVDKSSSTAYMQLSSLTSEDSAVYYCARWGYLGRSAMDYWGQGTSVTVSS
VL: DVQITQSPSYLAASPGETITINCRTSKSISKFLAWYQEKPGKTHKLLIYSGSTLQSGIPSRFSGSGSGTDFTLTISSLEPEDFAMYYCQQHNEYPWTFGGGTKLEIK
notes: Mouse hybridoma antibody; also called 鼠源抗体167
Turning to B7, the binding result in experiment [2] is listed as “binds”.
